Assay results taken from the DeepSol protein solubility set.

Test: soluble on expression in E. coli; label from the status in PepcDB or PDB records

Sequence	soluble on expression in E. coli
QTEVQKLTNAKAIITYLAEKFPLCFVLEGEAKPLKIGLFQDLAEALQDDERVSKTQLRQALRQYTSNWRYLYGCREGAVRVDLQGNPAGVLDAEHVAHAAQQLAEAKARFAEKRKQKLQLKKHNKKSIRVNLRIKTLKKRV	not soluble
MKAVKPMTDNISVLIMGVDESEIRDKNYGKATRTDALLLATINKNDKSVKLVSIPRDSRVYIKSRDKYDKITHAHVFGGVDSTIDTVENFLDVPVDYYVKFNFKSFIKIVDSLGGITVDVPVEFTEQNSKDEADAVHLKKGRQHLNGEEALALARTRHIDSDYMRGQRQQLVLEAIAQKALSLNSINKIGGLLDAVDKDLKTNLTFDDMMTIAKNSMDSNLKMDKMQVEGTDKYIGGIYYYVPNEKSVNTISTTLQEHLGVTNKNEHKKLLEHHHHHH	soluble
MSSNFRHQLLSLSLLVGIAAPWAAFAQAPISSVGSGSVEDRVTQLERISNAHSQLLTQLQQQLSDNQSDIDSLRGQIQENQYQLNQVVERQKQILLQIDSLSSGGAAAQSTSGDQSGAAASTTPTADAGTANAGAPVKSGNANTDYNAAIALVQDKSRQDDAMVAFQNFIKNYPDSTYLPNANYWLGQLNYNKGKKDDAAYYFASVVKNYPKSPKAADAMFKVGVIMQDKGDTAKAKAVYQQVISKYPGTDGAKQAQKRLNAM	soluble
MTDQLQHIRKPPRTGKAARSGTQDEIVYAHIFDAILEQRLAPGTKLSEEALGEIFGVSRTIIRRALSRLAHEQVVLLRPNRGAVVASPSIDEARQILFARRTVERAITELATDNATAERLAEL	not soluble
MTAFRQRPLRLGHRGAPLKAKENTLESFRLALEAGLDGVELDVWPTRDGVFAVRHDPDTPLGPVFQVDYADLKAQEPDLPRLEEVLALKEAFPQAVFNVELKSFPGLGEEAARRLAALLRGREGVWVSSFDPLALLALRKAAPGLPLGFLMAEDHSALLPCLGVEAVHPHHALVTEEAVAGWRKRGLFVVAWTVNEEGEARRLLALGLDGLIGDRPEVLLPLGG	soluble
MFKRTKLILIATILLSGCSTTNNESNNETKSVPEEMEASKYVGQGFQPPAEKDAVEFAKKHKDKIAKRGEQFFMDNFGLKVKATNVVGSGDGVEVFVHCDDHDIVFNASIPFDKSIIDSDSSLRSEDKGDDMSTLVGTVLSGFEYRAQKEKYDNLYKFFKENEKKYQYTGFTKEAINKTQNSGYENEYFYIVANIPTLQEYRKYYEPLIKKNNLNFKKGMKQARKGVGYKAAIEVHTTLFSRSSNFSKDKKLDDVIDLSESTKKLHLNFENTKIFLQLAKSTISTNRVNYSDNESIRIEVELEHHHHHH	soluble
MDIISKSGEGNKYTINSAIAFVAYASHIDINTTEFSKVLSGLRDFINDEAIRLGGKISDGSFNKCNGDWYEWLIGIRAIEFFLESETNFIVVKMPNATSFDVMSIYKSCLSEFIYDLRSKLSLNNVNLITSNPDFSIIDIRGRREELKSMLKDISFSNISLSTISEIDNLYKNFIDYAELEHIKSFLSVKTTFRPDRRLQLAHEGSLMKALYTHLQTRTWTINPTGIRYYAAATSIGNADVIGLKTVATHSITDVKSLPQSAVDEIFKINSVLDVDSCLSHILSS	soluble
MEKLVAYKRMPLWNKQTMPEAVQQKHNTKVGTWGKITVLKGALKFIELTEEGEVLAEHLFEAGADNPMAQPQAWHRVEAATDDVEWYLEFYCKPEDYFAKKYNTNPVHSEVLEAMQTVKQGKALDLGCGQGRNSLFLAQQDFDVTAVDQNGLALEILQSIVEQEDLDMPVGLYDINSASIEQEYDFIVSTVVLMFLQADRIPAIIQNMQEKTSVGGYNLIVCAMDTEDYPCSVNFPFTFKEGELADYYKDWELVKYNENPGHLHRRDENGNRIQLRFATLLAKKIKLEHHHHHH	soluble
PQKICLICGDEASGCHYGVLTCGSCKVFFKRAMEGQHNYLCAGRNDCIVDKIRRKNCPACRLRKCCQAGMVLGGRKFK	soluble
MVCQHNDELEALVKKAKKVTDKGEVASYIPALAKADKHDLSVAIYYSNNVCLSAGDVEKTFTLQSISKVLSLALVLMEYGKDKVFSYVGQEPTGDPFNSIIKLETVNPSKPLNPMINAGALVVTSLIRGRTVKERLDYLLSFIRRLTNNQEITYCREVAESEYSTSMINRAMCYYMKQYGIFEDDVEAVMDLYTKQCAIEMNSLDLAKIGSVFALNGRHPETGEQVISKDVARICKTFMVTCGMYNASGEFAIKVGIPAKSGVSGGIMGISPYDFGIGIFGPALDEKGNSIAGVKLLEIMSEMYRLSIFLEHHHHHH	soluble
MAHHHHHHMLLLLFRPVYQCTVALLCRSLPAYHPCLLSTDSPPPFFTVFCHLDDALHAMRRRSCSLRRLEVHTKRRAHAIMAELANPNPTVFEPTHDPLKGRTDAERAAEDDEDTEDPIDAWEVFEMIRRIRDPEHPNSLEQLKVVEPSLITVDWKKRHIRVLFTPTVPHCSLTTLIGLSIRLQLERSLPEYTKVDIYVTPGTHEQEAQVNKQLNDKERVAAALENRNLLNVVESCINEFDE	not soluble
ATTGTQGYTVVKNDWKKAVKQLQDGLKDNSIGKITVSFNDGVVGEVAPKSANKKADRDAAAEKLYNLVNTQLDKLGDGDYVDFSVDYNLENKIITNQADAEAIVTKLNSLNEKTLIDIATKDTFGMVSKTQDSEGKNVAATKALKVKDVATFGLKSGGSEDTGYVVEMKAGAVEDKYGKVGDSTAGIAINLPSTGLEYAGKGTTIDFNKTLKVDVTGGSTPSAVAVSGFVTKDDTDLAKSGTINVRVINAKEESIDIDASSYHMSLEHHHHHH	soluble
MISANRPIINLDLDLLRTFVAVADLNTFAAAAAAVCRTQSAVSQQMQRLEQLVGKELFARHGRNKLLTEHGIQLLGYARKILRFNDEACSSLMFSNLQGVLTIGASDESADTILPFLLNRVSSVYPKLALDVRVKRNAYMAEMLESQEVDLMVTTHRPSAFKALNLRTSPTHWYCAAEYVLQKGEPIPLVLLDDPSPFRDMVLATLNKVDIPWRLAYVASTLPAVRAAVKAGLGVTARPVEMMSPDLRVLSGVDGLPPLPDTEYLLCYDPSSNNELAQVIYQAMESYHNPWQYSPMSAPEGDDSLLIERDIE	not soluble
MGHHHHHHSHMTLQALSEANRRLWMEAMDGKEPIYHSPITKQQEMELNEVGFKFVRKCINIIETKGIKTEGLYRTVGSNIQVQKLLNAFFDPKCPGDVDFHNSDWDIKTITSSLKFYLRNLSEPVMTYRLHKELVSAAKSDNLDYRLGAIHSLVYKLPEKNREMLELLIRHLVNVCEHSKENLMTPSNMGVIFGPTLMRAQEDTVAAMMNIKFQNIVVEILIEHFGKIYLGPPEESAAPPVPPPRVTARRHKP	not soluble
GAMGQTTFTELMQQLFLKLGLNHQVNENDVYTFEVDGHIQVLIACYHQQWVQLFSELGADLPTNDNLFGEHWPAHVQGRLDGKSILWSQQSLVGLDIDEMQAWLERFIDDIEQRKEPQNTKFQPNSTSPILFI	soluble
MVHYKVSYFPIRGAGEIARQILAYAGQDFEDNRIPKEEWPAVKPSTPFGQLPLLEVDGKVLAQSHAIARYLARQFGINGKCAWEEAQVNSVADQFKDYLNEVRPYFMVKMGFAEGDLDALAKDVFLPGFKKHYGFFANFLKSAGSGYLVGDSLTFVDLLVAQHTADLLAANAALLDEFPQFKAHQEKVHSNANIKKWLETRPVTPF	not soluble
MTLPSSCAPLTGISRARLPAWALPDGWPTQANGEPLLADLAFRDGRIAALTPTDQPTPGLWDLAGALTLPGLVEPHAHLDKTFTIERCRPAQAGLLPAIHAMHEDRRHWSRADIQRRASAALARAAANGVTHLRSHIDWFNADAPDAWQEIARLDTVGITLERVALVPLPLFRELAQAEAIARTVANSGERCLLGGFIHSSNWDATAMENLLYSAARWDLDLDLHIDEELSEVSQGLTWLADHLSRHPFPGHICCSHGCALAAGSDEQAAPILRQLAAHGVTLIALPMTNLLLQDATFGRTPRQRGITLLHEAQAAGVATLLGCDNVQDAFCPAGSYDPLDTLACGLFSAQLSDLFDQQSRLICDRAALTGSPADAAPFAVGAAASVVIFPGSDRFTWPLNSAARLVVNHGRLTHRRVWQEEMAHES	not soluble
MSLLFYVAYLGFYIAPTKLVRNKIKSWLLNASEYDFTDIKEGIRLHLNESPFEPPQFIIDAVKMYLSKGNRYQHPDLLEKYRELAAEYSKVEPENIYPSVGADGSIRAIFYNLVEPGDTILTNYPSYSMYSVYSSVRGTKVIKVNLKEDNEWWKENTDDLLAQAEKVELVIIDDPNNPTGSPMLNGKKELIGQLAENTKGFVVIDEAYYEFGGYTVSPYIYDYPNVLVVRTLSKAFSLASYRLGYTIANEEIVKALMKSSTPFDIPLPSLIAGITALENPSYIKDVVNIVNRNREILYQGLKNLNLKVYKSITNFLLIKDNRNLQEMLMRHGIAIRKLYDNFYRITIGTEDQCKMVIDKLGEELENSNSEGHHHHHH	not soluble
MGRKKRLKVERKAVAENQSQILTMVTISETEMEKEKTYTALQKLKSVSNDLFEECQRVFANTSFCTAELENIVGCFDRYEKEISTIPDEYRTHPCVIKFQNCIRALCNVVAKKLNNTTRDVETQTNFQSPRITWRQRYWMPYLNK	not soluble
MSLLARYLNLIGRRSASPYRPQRLPAKFDNVIVAMSSGVDSSVAAALFAGEFPNTRGVYMQNWSESQSLDDPGKEPCYERDWRDVNRVAKHLNIRVDKVNFEQDYWIDVFEPMLRGYSEGSTPNPDIGCNKFVKFGKLREWLDEKYGTGNYWLVTGHYARVMQEMNGKGLFHLLRSIYRPKDQSYYLSQINSTVLSSLLLPIGHLTKPEVRDLAKYAGLPTAEKPDSQGICFVNNSQHGKFKNFLKHYLPSSPGDIITVDPQSGAKTTWGRHDGLWSYTIGQKVGISMPQADPNYQGTWFVSEKLRDTNEILIVRGRDNPALYSDTMRIENFSSLGPREDTINAFQNTGALTLQFRSLQVPVQIKSCKLNRSADNLDITIHLASKQRAITPGQSCCLYIDDRVLGSGPISHVNNNDTHAEGHHHHHH	not soluble
MGVCFSAIRVTGASSSRRSSQTKSKAAPTPIDTKASTKRRTGSIPCGKRTDFGYSKDFHDHYTIGKLLGHGQFGYTYVAIHRPNGDRVAVKRLDKSKMVLPIAVEDVKREVQILIALSGHENVVQFHNAFEDDDYVYIVMELCEGGELLDRILSKKGNRYSEKDAAVVVRQMLKVAGECHLHGLVHRDMKPENFLFKSAQLDSPLKATDFGLSDFIKPGKRFHDIVGSAYYVAPEVLKRRSGPESDVWSIGVITYILLCGRRPFWDRTEDGIFKEVLRNKPDFSRKPWATISDSAKDFVKKLLVKDPRARLTAAQALSHAWVREGGNATDIPVDISVLNNLRQFVRYSRLKQFALRALASTLDEAEISDLRDQFDAIDVDKNGVISLEEMRQALAKDLPWKLKDSRVAEILEAIDSNTDGLVDFTEFVAAALHVHQLEEHDSEKWQLRSRAAFEKFDLDKDGYITPEELRMHTGLRGSIDPLLDEADIDRDGKISLHEFRRLLRTASISSQRAPSPAGHRNLR	soluble
RNLSGQSRTVGVEYVSANPTGPLHVGHGRAAAIGDCLARLLEANGWNVKREFYYNDAGVQIENLVRSVQARARGLKPGDALWPTDAYNGEYIADIAKAYLAGDSINMVDTIITSTKNVDDTAAIHHFAVNYLRNEQNHDLAAFNVDFDIYFLESSLYKDGKVEETVQKLINSGHTYEEGGALWLKSTHFGDDKDRVMRKSDGSYTYFVPDIAYHLSKWQRGYERAITELGADHHGSLARVHAGLQALEIGIPPGWPEYVLHQMVTVMRGGEEVKLSKRSGGYVTLRDLIEETSTDATRWFLIARKPDSQLTFDIDLARQKSNDNPVFYVQYAYARVCSLMHQAHE	not soluble
